Reference: patent EP4628506A1, “PREPARATION METHOD FOR AND USE OF CD70-SPECIFIC INTEGRATED DIAGNOSIS AND TREATMENT MOLECULAR IMAGING PROBE” (Renji Hospital, Shanghai Jiao Tong University School of …, priority 2022, dated 2024)

T1: extracellular domain of human recombinant CD70 (human, UniProt P32970 39-193)
T1 construct: extracellular domain; Immobilised on Biacore chips; also called human CD70; CD27 ligand
T1 sequence (looked up): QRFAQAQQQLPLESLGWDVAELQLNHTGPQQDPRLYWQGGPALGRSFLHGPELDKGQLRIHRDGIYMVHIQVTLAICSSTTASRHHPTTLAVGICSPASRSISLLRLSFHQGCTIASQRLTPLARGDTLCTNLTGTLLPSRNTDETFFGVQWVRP


What was measured:
RCC models (No. 62 PDX) = test system: RCC models (No. 62 PDX); parameters: species or system mice; conditions: mouse, in vivo
Excerpt: Renal cell carcinoma (RCC) patient-derived xenograft (PDX) models, No. 62 PDX, positive in expression of CD70 were identified by immunohistochemical (IHC) staining using an antihuman CD70 monoclonal antibody (E3Q1A, 69209, Cell Signaling Technology) as a primary antibody, as shown in FIG. 3. RCC PDX models were established by subcutaneously inoculating 2mm×2mm×2mm No. 62 PDX tissue chunks into right shoulder of NCG (NOD-Prkdcem26Cd52Il2rgem26Cd22/Nju) mice.
PET/CT images of small animals involved in these tests were all captured using an IRIS small-animal PET/CT scanner (Inviscan Imaging Systems). Each murine model (three in each group) was injected with 3.7-7.4 MBq of [^68Ga]Ga-NOTA-B3 or [^68Ga]Ga-NOTA-B6 via the tail vein. One hour after the injection, the mice were anesthetized with isoflurane mixed in oxygen (at a concentration of 2%). After being deeply anesthetized, the mice were placed supine on the PET/CT scanning bed, and PET and CT images were captured sequentially. […]
The same operations as in step 2) above were performed. […] ROI uptake in the tumor and major tissues and organs (heart, liver, lungs, kidneys, muscles, spleen and bones) was analyzed and plotted against time. […]

[1] = biological target: T1, extracellular domain of human …; assay: SPR (Biacore), CD70 extracellular domain immobilised, fusion protein as mobile phase
[2] = biological target: T2, recombinant murine serum albumin (murine, UniProt P07724 25-608); assay: SPR (Biacore), recombinant murine serum albumin immobilised, fusion protein as mobile phase
T2 construct: Immobilised on Biacore chips

[3] = biological target: T3, recombinant human serum albumin (human, UniProt P02768 25-609); assay: SPR (Biacore), recombinant human serum albumin immobilised, fusion protein as mobile phase
T3 construct: Immobilised on Biacore chips

[4] = biological target: T1, extracellular domain of human …; assay: SPR (Biacore), CD70 extracellular domain immobilised, nanobody as mobile phase

T3 sequence (P02768 25-609 limits assumed): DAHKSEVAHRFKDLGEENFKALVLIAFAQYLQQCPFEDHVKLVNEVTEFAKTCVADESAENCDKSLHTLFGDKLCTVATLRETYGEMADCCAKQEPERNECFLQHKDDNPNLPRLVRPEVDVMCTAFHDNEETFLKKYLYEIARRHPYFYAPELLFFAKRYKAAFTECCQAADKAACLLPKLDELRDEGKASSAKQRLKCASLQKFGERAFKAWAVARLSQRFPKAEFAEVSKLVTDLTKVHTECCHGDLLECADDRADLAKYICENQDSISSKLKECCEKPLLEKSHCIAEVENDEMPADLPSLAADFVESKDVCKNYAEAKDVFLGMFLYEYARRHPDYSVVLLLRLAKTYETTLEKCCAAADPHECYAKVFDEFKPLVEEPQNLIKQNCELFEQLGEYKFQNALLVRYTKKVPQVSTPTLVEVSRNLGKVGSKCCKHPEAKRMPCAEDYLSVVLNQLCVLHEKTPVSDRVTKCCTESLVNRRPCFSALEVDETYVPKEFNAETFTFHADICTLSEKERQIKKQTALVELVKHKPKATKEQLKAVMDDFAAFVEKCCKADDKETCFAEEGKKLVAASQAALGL

Row | Kd [1] [nM] | Kd [2] [nM] | Kd [3] [nM] | Kd [4] [nM] | Molecule | uptake in the major excretory (kidneys) and metabolic (liver) organs (RCC models (No. 62 PDX))
1 | – | – | – | – | [^68Ga]Ga-NOTA-B6: human CD70-specific 68Ga-labeled monovalent nanobody probe, B6 modified with p-SCN-Bn-NOTA (conjugate) VHH: QVQLQESGGGSVQAGGSLRLSCVASDLIVNDGCMAWFRQVPGKEHEGVARIAIPTTPGSTLYADSVKGRFTISRDGAKNTLYLQMNSLKPEDTAVYYCAADQWASRGCTAIATIPAEFDYWGQGTQVTVSSGGGGSGGGGSLLQSHHHHHH | high nonspecific uptake
2 | 0.11 | 0.38 | 0.0742 | – | CD70-specific nanobody fusion protein ABDB3 (other, 5) HHHHHHQVQLQESGGGSVQAGGSLRLSCAASGIIVNDGCMAWFRQVPGKEREGVAGIVIGEYGGGTTYYADSVKGRFTISRDRAKNTLYLQMNSLKPEDTAMYYCAADQWASGGCTSIATFSDEFDYWGQGTQVTVSSGGGGSGGGGSGGGGSLAEAKVLANRELDKYGVSDFYKRLINKAKTVEGVEALKLHILAALPGGGGSLLQS | –
3 | – | – | – | 3.73 | CD70-specific nanobody B6 (VHH, Monovalent nanobody expressed in E. coli from pET-30a(+); any vector-derived tag is not described) VHH: QVQLQESGGGSVQAGGSLRLSCVASDLIVNDGCMAWFRQVPGKEHEGVARIAIPTTPGSTLYADSVKGRFTISRDGAKNTLYLQMNSLKPEDTAVYYCAADQWASRGCTAIATIPAEFDYWGQGTQVTVSS | –
4 | 0.135 | 0.454 | 0.0885 | – | CD70-specific nanobody fusion protein ABDB6 (other, 7) HHHHHHQVQLQESGGGSVQAGGSLRLSCVASDLIVNDGCMAWFRQVPGKEHEGVARIAIPTTPGSTLYADSVKGRFTISRDGAKNTLYLQMNSLKPEDTAVYYCAADQWASRGCTAIATIPAEFDYWGQGTQVTVSSGGGGSGGGGSGGGGSLAEAKVLANRELDKYGVSDFYKRLINKAKTVEGVEALKLHILAALPGGGGSLLQS | –
5 | – | – | – | 5.69 | CD70-specific nanobody B3 (VHH, Monovalent nanobody expressed in E. coli from pET-30a(+); any vector-derived tag is not described) VHH: QVQLQESGGGSVQAGGSLRLSCAASGIIVNDGCMAWFRQVPGKEREGVAGIVIGEYGGGTTYYADSVKGRFTISRDRAKNTLYLQMNSLKPEDTAMYYCAADQWASGGCTSIATFSDEFDYWGQGTQVTVSS | –
